Eight molecules from patent US9393309B2, “Self-gelatinizable nucleic acid” (Kyoto University, priority 2011, dated 2016) can be followed below.

Type in all cases: physicochemical
The nature of data set [1]: Formation of hydrogel from nucleic acid units without ligase. The note with it: for gel formation singly or on mixing: final DNA concentration 2 mM, NaCl 150 mM; for gel formation: without DNA ligase. As to the method: A NaCl solution was added to an ODN solution (polypodna) such that the final Na^+ concentration was 5 to 150 mM. The gel formation and the gel strength were measured by a gel strength analyzer (gel strength meter, Nakayamadenki Co., Ltd, Osaka).
A structure to be a hydrogel (a nucleic acid monomer and an estimated nucleic acid unit) in conditions at room temperature, at 5 mM to 150 mM sodium chloride concentration (150 mM is substantially physiological concentration), and not containing a DNA ligase was elucidated. […] For convenience, nucleic acid units estimated to be formed according to the number of nucleic acid monomers capable of constituting the nucleic acid unit were represented by xxxpodna (xxxpod-like structure forming nucleic acid, xxx is substituted by tri (3), tetra (4) and the like, according to the number of nucleic acid monomers capable of constituting the nucleic acid unit). In Table 2 described below, xxxpodna is an estimated nucleic acid unit, and each of xxx-Y-N is a nucleic acid monomer that can be a constituent element of the nucleic acid unit (xxxpodna) which is mentioned above thereof. When the descriptions of Ys are different from each other, different nucleic acid units can be formed. N denotes numbering of nucleic acid monomers constituting each of the estimated nucleic acid units.
Unlike (1-1) described above, gelation can be controlled by using a nucleic acid monomer including cohesive protruding ends which are not attached to themselves (that is, not palindrome sequence).

Data set [2] in a line: Percentage of remaining gels with the passage of time. As to the method: Gels were formed by adjusting the NaCl concentration at 150 mM in an aqueous solution containing Tetrapodna (12-14-14) (SEQ ID NOs.: 30, 31, 32 and 33) at a DNA concentration of 0.1 mM, 0.25 mM or 0.5 mM, and the percentage of the remaining gels was measured with the passage of time. The results are shown in a graph in the left upper side of FIG. 17.
Gels were formed in conditions at a certain DNA concentration (0.5 mM) and a certain NaCl concentration (150 mM), and the percentage of the remaining gels was measured with the passage of time by using Tetrapodna (respectively, SEQ ID NOs.: 2, 4, 5 and 6, SEQ ID NOs.: 18, 19, 20 and 21, SEQ ID NOs.: 22, 23, 24 and 25, SEQ ID NOs.: 26, 27, 28 and 29, as well as SEQ ID NOs.: 30, 31, 32 and 33) having various lengths of the cohesive protruding end (4, 6, 8, 10 or 12 bases). The results are shown in a graph in the left lower side of FIG. 17. […] When 12 hours had passed, the percentage of the remaining gels became about 50%.
Gels were formed by variously changing the NaCl concentrations (5 mM, 50 mM, 100 mM or 150 mM) of an aqueous solution containing Tetrapodna (12-14-14) (SEQ ID NOs.: 30, 31, 32 and 33) at a DNA concentration of 0.5 mM, and the percentage of the remaining gels was measured with the passage of time. The results are shown in a graph in the right upper side of FIG. 17. […] At a low salt concentration (5 mM), almost all the formed gels became in a sol state when about 6 hours had passed. When the salt concentration was increased to 50 mM, solation tendency was weakened, a change from a gel into a sol occurred moderately (about 40% when 12 hours had passed).
The percentage of the remaining gels was measured with the passage of time in the same manner as in (8-3) except that Tetrapodna (4-18-18) (SEQ ID NOs.: 2, 4, 5 and 6) was used instead of Tetrapodna (12-14-14) (SEQ ID NOs.: 30, 31, 32 and 33). The results are shown in a graph in the right lower side of FIG. 17. […] In (8-3), Tetrapodna (12-14-14) (the length of the cohesive protruding end is 12 bases) was used. In (8-4), Tetrapodna (4-18-18) (the length of the cohesive protruding end is 4 bases) was used.

Data set [3] in a line: Evaluation of gelation at various DNA concentrations and NaCl concentrations. Details: key: ◯: the mark “∘” is given to cases in which gelation was observed; X: the mark “x” is given to cases of a solution state (sol-state). As to the method:
[…] The gel formation and the gel strength were measured by a gel strength analyzer (gel strength meter, Nakayamadenki Co., Ltd, Osaka).
Specifically, by changing the DNA concentrations of an aqueous solution of Tripodona (4-18-18) (X=4) (SEQ ID NOs.: 1, 2 and 3), Tetrapodna (4-18-18) (X=4) (SEQ ID NOs.: 2, 4, 5 and 6), Hexapodna (4-18-18) (X=4) (SEQ ID NOs.: 2, 3, 4, 7, 9 and 10) and Tetrapodna (8-16-16) (X=8) (SEQ ID NOs.: 22, 23, 24 and 25) as shown in the lines of Table 4, and by changing the NaCl concentration as shown in the rows of Table 4, whether or not a gel is formed at various DNA concentrations and NaCl concentrations was evaluated. The results are shown such that the mark “∘” is given to cases in which gelation was observed, and the mark “x” is given to cases of a solution state (sol-state).

As to “dsDNA (12-14): double strand DNA, SEQ ID NOs.: 42 and 43, 12-base ends complementary to Tetrapodna (A) (chain 1 GACTGACTCTGAACGTCAGCGTTA; chain 2 GACTGACTCTGATAACGCTGACGT; DNA, all phosphodiester, methylation of C not given here)”, the “gel formation singly or on mixing” value in data set [1] was “did not form a gel singly”.

B1: Tetrapodna (6-17-17): four ODNs, SEQ ID NOs.: 18, 19, 20 and 21, 6-base cohesive protruding end (nucleic acid)
DNA 1: AACGTTTACGCACGACATCAGCGTCTGGACGCTTCGTCGA
DNA 2: AACGTTTCGACGAAGCGTCCAGATCTCGTCAACGCTGCGA
DNA 3: AACGTTTCGCAGCGTTGACGAGACAGACGCTGTGACGCTA
DNA 4: AACGTTTAGCGTCACAGCGTCTGCGCTGATGTCGTGCGTA
modifications: unmodified DNA
For the molecule B1, the gel formation entry in data set [1] is “gels can be prepared”. In data set [2] (DNA 0.5 mM, NaCl 150 mM), the “initial percentage of gels” value is reported as “about 100%” and the “percentage of the remaining gels with the passage of time” value (shortened to “percentage of the remaining gels”) is “decreased with the passage of time only slightly”.

B2: Tetrapodna (10-15-15): four ODNs, SEQ ID NOs.: 26, 27, 28 and 29, 10-base cohesive protruding end (nucleic acid)
DNA 1: ACGTTAACGTTGCACGACATCAGCGTCTGACGCTCGTCGA
DNA 2: ACGTTAACGTTCGACGAGCGTCAGATCTCGCAACGCTGCA
DNA 3: ACGTTAACGTTGCAGCGTTGCGAGACAGACGCTTGACGCA
DNA 4: ACGTTAACGTTGCGTCAAGCGTCTGCGCTGATGTCGTGCA
modifications: DNA, all phosphodiester, methylation of C not given here
Regarding B2, in data set [1], the gel formation result is “gels can be prepared”. Further, in data set [2] (DNA 0.5 mM, NaCl 150 mM), the “initial percentage of gels” value is on record as “about 100%” and the “percentage of the remaining gels” value was “decreased with the passage of time only slightly”.

B3: Tetrapodna (12-14-14): four ODNs, SEQ ID NOs.: 30, 31, 32 and 33, 12-base palindrome cohesive protruding end (nucleic acid)
DNA 1: ACGTCATGACGTTGCACGACATCACGTTGACGCTCGTCGA
DNA 2: ACGTCATGACGTTCGACGAGCGTCAATCTCGCAACGTGCA
DNA 3: ACGTCATGACGTTGCACGTTGCGAGACAGACGCTTGACGA
DNA 4: ACGTCATGACGTTCGTCAAGCGTCTGCGTGATGTCGTGCA
modifications: DNA, all phosphodiester, methylation of C not given here
As for B3, in data set [1], the gel formation entry is “gels can be prepared”. The “gel formation (percentage of gels)” value in data set [2] (DNA 0.1 mM, NaCl 150 mM) is “about 25%”. Also, the “percentage of the remaining gels” value in data set [2] (DNA 0.25 mM, NaCl 150 mM) is recorded as “the initial percentage of gels was increased, but the percentage of the remaining gels was decreased with the passage of time”; in data set [2] (DNA 0.5 mM, NaCl 100 mM), “decreased with the passage of time only slightly”; in data set [2] (DNA 0.5 mM, NaCl 150 mM), “decreased with the passage of time only slightly”. Also, the “time until almost all the formed gels became in a sol state” value in data set [2] (DNA 0.5 mM, NaCl 5 mM) was “about 6 hours”. Besides, in data set [2] (DNA 0.5 mM, NaCl 50 mM, 12 hours), the “change from a gel into a sol” value is given as “about 40%”. For the same molecule, the “initial percentage of gels” value in data set [2] (DNA 0.5 mM, NaCl 100 mM) is “about 100%”; in data set [2] (DNA 0.5 mM, NaCl 150 mM), “about 100%”.

B4: Tetrapodna (A): SEQ ID NOs.: 34, 35, 36 and 37, 12-base non-palindrome cohesive protruding end (nucleic acid)
DNA 1: TCAGAGTCAGTCTGCACGACATCACGTTGACGCTCGTCGA
DNA 2: TCAGAGTCAGTCTCGACGAGCGTCAATCTCGCAACGTGCA
DNA 3: TCAGAGTCAGTCTGCACGTTGCGAGACAGACGCTTGACGA
DNA 4: TCAGAGTCAGTCTCGTCAAGCGTCTGCGTGATGTCGTGCA
modifications: DNA, all phosphodiester, methylation of C not given here
With B4, the “gel formation singly or on mixing” value in data set [1] was “did not form a gel singly”.

B5: Tetrapodna (B): SEQ ID NOs.: 38, 39, 40 and 41, 12-base end complementary to Tetrapodna (A) (nucleic acid)
DNA 1: GACTGACTCTGATGCACGACATCACGTTGACGCTCGTCGA
DNA 2: GACTGACTCTGATCGACGAGCGTCAATCTCGCAACGTGCA
DNA 3: GACTGACTCTGATGCACGTTGCGAGACAGACGCTTGACGA
DNA 4: GACTGACTCTGATCGTCAAGCGTCTGCGTGATGTCGTGCA
modifications: DNA, all phosphodiester, methylation of C not given here
With B5, the “gel formation singly or on mixing” value in data set [1] is on record as “did not form a gel singly”.

B6: Tripodna(4-18-18): nucleic acid unit of three ODNs, SEQ ID NOs.: 1, 2 and 3, 4-base palindrome cohesive protruding end, CpG (nucleic acid)
DNA 1: ACGTTCGTCAACGTCTGTGCTCTCACGTTGACGCTGTCGA
DNA 2: ACGTTCGACAGCGTCAACGTGAAACGTGAAGCGTCTGCGA
DNA 3: ACGTTCGCAGACGCTTCACGTTGAGCACAGACGTTGACGA
modifications: unmodified DNA
Consider B6, for which the gelation result in data set [3] (Na+ 2 mM, DNA 1.2 mM) is “X”; in data set [3] (Na+ 2 mM, DNA 1.4 mM), “◯”; in data set [3] (Na+ 10 mM, DNA 1.2 mM) it was “◯”; in data set [3] (Na+ 20 mM, DNA 1.0 mM), “X”; in data set [3] (Na+ 50 mM, DNA 0.7 mM) it was “X”; in data set [3] (Na+ 50 mM, DNA 0.8 mM), “X”. In addition, the gelation result is reported as “X” in data set [3] (Na+ 50 mM, DNA 0.9 mM); “◯” in data set [3] (Na+ 50 mM, DNA 1.0 mM); “◯” in data set [3] (Na+ 100 mM, DNA 0.7 mM); “◯” in data set [3] (Na+ 100 mM, DNA 0.8 mM); “◯” in data set [3] (Na+ 100 mM, DNA 0.9 mM); “X” in data set [3] (Na+ 150 mM, DNA 0.6 mM). The gel formation entry in data set [1] is “gels can be prepared”.

B7: Pentapodna (4-18-18): five ODNs, SEQ ID NOs.: 2, 3, 4, 7 and 8, 4-base cohesive protruding end (nucleic acid)
DNA 1: B6 DNA 2
DNA 2: B6 DNA 3
DNA 3: ACGTTCGCTGACGTTGCAGACATCACGTTGACGCTGTCGA
DNA 4: ACGTTCGTCAACGTCTGTGCTCGCAGCGTCTTAACGTCGA
DNA 5: ACGTTCGACGTTAAGACGCTGCTGTCTGCAACGTCAGCGA
modifications: unmodified DNA
As for B7, in data set [1], the gel formation result is on record as “gels can be prepared”.
